To fix the notation:
B1: GLS3000 N28P one-arm antibody (H chain CE115HA000) (antibody, human IgG1, kappa, L234A L235A, N297A, name in Kabat numbering)
heavy: QVQLVESGGGVVQPGRSLRLSCAASGFTFSNAWMHWVRQAPGKGLEWVAQIKAKSNNYATYYAESVKGRFTISRDDSKNSLYLQMNSLKTEDTAVYYCRYVHYGAYYGVDAWGQGTTVTVSSASTKGPSVFPLAPSSKSTSGGTAALGCLVKDYFPEPVTVSWNSGALTSGVHTFPAVLQSSGLYSLSSVVTVPSSSLGTQTYICNVNHKPSNTKVDKKVEPKSCDKTHTCPPCPAPEAAGGPSVFLFPPKPKDTLMISRTPEVTCVVVDVSHEDPEVKFNWYVDGVEVHNAKTKPREEQYASTYRVVSVLTVLHQDWLNGKEYKCKVSNKALPAPIEKTISKAKGQPREPQVYTLPPSRCELTKNQVSLSCAVKGFYPSDIAVEWESNGQPENNYKTTPPVLDSDGSFFLVSKLTVDKSRWQQGNVFSCSVMHEALHNHYTQKSLSLSPDYKDDDDK
chain: EPKSSDKTHTCPPCPAPELLGGPSVFLFPPKPKDTLMISRTPEVTCVVVDVSHEDPEVKFNWYVDGVEVHNAKTKPREEQYNSTYRVVSVLTVLHQDWLNGKEYKCKVSNKALPAPIEKTISKAKGQPREPQVCTLPPSRDELTKNQVSLWCLVKGFYPSDIAVEWESNGQPENNYKTTPPVLDSDGSFFLYSKLTVDKSRWQQGNVFSCSVMHEALHNRYTQKSLSLSP
light: DIVMTQSPLSLPVTPGEPASISCRSSQSLVHSPRNTYLHWYQQKPGQAPRLLIYKVSNRFSGVPDRFSGSGSGTDFTLKISRVEAEDVGVYYCGQGTQVPYTFGQGTKLEIKRTVAAPSVFIFPPSDEQLKSGTASVVCLLNNFYPREAKVQWKVDNALQSGNSQESVTEQDSKDSTYSLSSTLTLSKADYEKHKVYACEVTHQGLSSPVTKSFNRGEC
notes: one-arm antibody
B2: GLS3000 Q27L one-arm antibody (H chain CE115HA000) (antibody, human IgG1, kappa, L234A L235A, N297A, name in Kabat numbering)
heavy: B1 heavy
chain: B1 chain
light: B1 light with Q27L, P33N
notes: one-arm antibody
B3: GLS3000 N30S one-arm antibody (H chain CE115HA000) (antibody, human IgG1, kappa, L234A L235A, N297A, name in Kabat numbering)
heavy: B1 heavy
chain: B1 chain
light: B1 light with P33N, N35S
notes: one-arm antibody
B4: GLS3000 N30G one-arm antibody (H chain CE115HA000) (antibody, human IgG1, kappa, L234A L235A, N297A, name in Kabat numbering)
heavy: B1 heavy
chain: B1 chain
light: B1 light with P33N, N35G
notes: one-arm antibody
B5: GLS3000 N28V one-arm antibody (H chain CE115HA000) (antibody, human IgG1, kappa, L234A L235A, N297A, name in Kabat numbering)
heavy: B1 heavy
chain: B1 chain
light: B1 light with P33V
notes: one-arm antibody
B6: GLS3000 N30T one-arm antibody (H chain CE115HA000) (antibody, human IgG1, kappa, L234A L235A, N297A, name in Kabat numbering)
heavy: B1 heavy
chain: B1 chain
light: B1 light with P33N, N35T
notes: one-arm antibody
B7: GLS3000 N53A one-arm antibody (H chain CE115HA000) (antibody, human IgG1, kappa, L234A L235A, N297A, name in Kabat numbering)
heavy: B1 heavy
chain: B1 chain
light: B1 light with P33N, N58A
notes: one-arm antibody
B8: GLS3000 N30L one-arm antibody (H chain CE115HA000) (antibody, human IgG1, kappa, L234A L235A, N297A, name in Kabat numbering)
heavy: B1 heavy
chain: B1 chain
light: B1 light with P33N, N35L
notes: one-arm antibody
B9: GLS3000 N28Y one-arm antibody (H chain CE115HA000) (antibody, human IgG1, kappa, L234A L235A, N297A, name in Kabat numbering)
heavy: B1 heavy
chain: B1 chain
light: B1 light with P33Y
notes: one-arm antibody
B10: GLS3000 N30P one-arm antibody (H chain CE115HA000) (antibody, human IgG1, kappa, L234A L235A, N297A, name in Kabat numbering)
heavy: B1 heavy
chain: B1 chain
light: B1 light with P33N, N35P
notes: one-arm antibody
B11: GLS3000 Q27D one-arm antibody (H chain CE115HA000) (antibody, human IgG1, kappa, L234A L235A, N297A, name in Kabat numbering)
heavy: B1 heavy
chain: B1 chain
light: B1 light with Q27D, P33N
notes: one-arm antibody
B12: GLS3000 N30F one-arm antibody (H chain CE115HA000) (antibody, human IgG1, kappa, L234A L235A, N297A, name in Kabat numbering)
heavy: B1 heavy
chain: B1 chain
light: B1 light with P33N, N35F
notes: one-arm antibody
B13: GLS3000 N30V one-arm antibody (H chain CE115HA000) (antibody, human IgG1, kappa, L234A L235A, N297A, name in Kabat numbering)
heavy: B1 heavy
chain: B1 chain
light: B1 light with P33N, N35V
notes: one-arm antibody
B14: GLS3000 N28Q one-arm antibody (H chain CE115HA000) (antibody, human IgG1, kappa, L234A L235A, N297A, name in Kabat numbering)
heavy: B1 heavy
chain: B1 chain
light: B1 light with P33Q
notes: one-arm antibody
B15: GLS3000 N30W one-arm antibody (H chain CE115HA000) (antibody, human IgG1, kappa, L234A L235A, N297A, name in Kabat numbering)
heavy: B1 heavy
chain: B1 chain
light: B1 light with P33N, N35W
notes: one-arm antibody
B16: GLS3000 Q27E one-arm antibody (H chain CE115HA000) (antibody, human IgG1, kappa, L234A L235A, N297A, name in Kabat numbering)
heavy: B1 heavy
chain: B1 chain
light: B1 light with Q27E, P33N
notes: one-arm antibody
B17: GLS3000 Q27P one-arm antibody (H chain CE115HA000) (antibody, human IgG1, kappa, L234A L235A, N297A, name in Kabat numbering)
heavy: B1 heavy
chain: B1 chain
light: B1 light with Q27P, P33N
notes: one-arm antibody
B18: GLS3000 N30I one-arm antibody (H chain CE115HA000) (antibody, human IgG1, kappa, L234A L235A, N297A, name in Kabat numbering)
heavy: B1 heavy
chain: B1 chain
light: B1 light with P33N, N35I
notes: one-arm antibody
B19: GLS3000 N30Y one-arm antibody (H chain CE115HA000) (antibody, human IgG1, kappa, L234A L235A, N297A, name in Kabat numbering)
heavy: B1 heavy
chain: B1 chain
light: B1 light with P33N, N35Y
notes: one-arm antibody
B20: GLS3000 N30H one-arm antibody (H chain CE115HA000) (antibody, human IgG1, kappa, L234A L235A, N297A, name in Kabat numbering)
heavy: B1 heavy
chain: B1 chain
light: B1 light with P33N, N35H
notes: one-arm antibody
B21: GLS3000 N53D one-arm antibody (H chain CE115HA000) (antibody, human IgG1, kappa, L234A L235A, N297A, name in Kabat numbering)
heavy: B1 heavy
chain: B1 chain
light: B1 light with P33N, N58D
notes: one-arm antibody
B22: GLS3000 N30R one-arm antibody (H chain CE115HA000) (antibody, human IgG1, kappa, L234A L235A, N297A, name in Kabat numbering)
heavy: B1 heavy
chain: B1 chain
light: B1 light with P33N, N35R
notes: one-arm antibody
B23: GLS3000 N30Q one-arm antibody (H chain CE115HA000) (antibody, human IgG1, kappa, L234A L235A, N297A, name in Kabat numbering)
heavy: B1 heavy
chain: B1 chain
light: B1 light with P33N, N35Q
notes: one-arm antibody
B24: GLS3000 N30E one-arm antibody (H chain CE115HA000) (antibody, human IgG1, kappa, L234A L235A, N297A, name in Kabat numbering)
heavy: B1 heavy
chain: B1 chain
light: B1 light with P33N, N35E
notes: one-arm antibody
B25: GLS3000 N28T one-arm antibody (H chain CE115HA000) (antibody, human IgG1, kappa, L234A L235A, N297A, name in Kabat numbering)
heavy: B1 heavy
chain: B1 chain
light: B1 light with P33T
notes: one-arm antibody
B26: GLS3000 N30M one-arm antibody (H chain CE115HA000) (antibody, human IgG1, kappa, L234A L235A, N297A, name in Kabat numbering)
heavy: B1 heavy
chain: B1 chain
light: B1 light with P33N, N35M
notes: one-arm antibody
B27: GLS3000 N28S one-arm antibody (H chain CE115HA000) (antibody, human IgG1, kappa, L234A L235A, N297A, name in Kabat numbering)
heavy: B1 heavy
chain: B1 chain
light: B1 light with P33S
notes: one-arm antibody
B28: GLS3000 N30A one-arm antibody (H chain CE115HA000) (antibody, human IgG1, kappa, L234A L235A, N297A, name in Kabat numbering)
heavy: B1 heavy
chain: B1 chain
light: B1 light with P33N, N35A
notes: one-arm antibody
B29: GLS3000 N30D one-arm antibody (H chain CE115HA000) (antibody, human IgG1, kappa, L234A L235A, N297A, name in Kabat numbering)
heavy: B1 heavy
chain: B1 chain
light: B1 light with P33N, N35D
notes: one-arm antibody
B30: GLS3000 N30K one-arm antibody (H chain CE115HA000) (antibody, human IgG1, kappa, L234A L235A, N297A, name in Kabat numbering)
heavy: B1 heavy
chain: B1 chain
light: B1 light with P33N, N35K
notes: one-arm antibody
B31: GLS3000 N28W one-arm antibody (H chain CE115HA000) (antibody, human IgG1, kappa, L234A L235A, N297A, name in Kabat numbering)
heavy: B1 heavy
chain: B1 chain
light: B1 light with P33W
notes: one-arm antibody

Numbering of substitutions follows the chain as printed. Numbers in names are those of the source.

The target of this assay is T1, CD3 epsilon homodimer protein (UniProt P07766 23-126).
T1 construct: also called CD3 (CD3 epsilon)
T1 sequence (P07766 23-126): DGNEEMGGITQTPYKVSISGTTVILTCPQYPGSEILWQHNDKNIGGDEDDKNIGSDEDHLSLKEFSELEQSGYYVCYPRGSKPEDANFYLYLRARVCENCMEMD
Kind of assay: SPR, CD3e homodimer on chip.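 Also: surface plasmon resonance at 25 degrees C, antibodies flowed as analyte over CD3 epsilon homodimer amine-coupled to a CM4 chip, running buffer HBS-EP+.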 On the technique in general: SPR reads the build-up and loss of mass on a sensor chip optically.
For the molecule B1, the “ratio of amounts bound (altered form / unaltered GLS3000 antibody)” value came to 0.36.

As to B2, the “ratio of amounts bound (altered form / unaltered GLS3000 antibody)” value was found to be 0.92.

Take B3: the “ratio of amounts bound (altered form / unaltered GLS3000 antibody)” value is 0.29.

Turning to B4, the “ratio of amounts bound (altered form / unaltered GLS3000 antibody)” value came to 0.47.

Take B5: the “ratio of amounts bound (altered form / unaltered GLS3000 antibody)” value came to 0.36.

Consider B6, for which the “ratio of amounts bound (altered form / unaltered GLS3000 antibody)” value was 0.29.

Turning to B7, the “ratio of amounts bound (altered form / unaltered GLS3000 antibody)” value was found to be 0.61.

On to B8, for which the “ratio of amounts bound (altered form / unaltered GLS3000 antibody)” value was 0.7.

As to B9, the “ratio of amounts bound (altered form / unaltered GLS3000 antibody)” value came out at 0.26.

With B10, the “ratio of amounts bound (altered form / unaltered GLS3000 antibody)” value came out at 0.31.

For B11, the “ratio of amounts bound (altered form / unaltered GLS3000 antibody)” value was 0.85.

On to B12, for which the “ratio of amounts bound (altered form / unaltered GLS3000 antibody)” value stood at 1.1.

For the molecule B13, the “ratio of amounts bound (altered form / unaltered GLS3000 antibody)” value was 0.61.

Regarding B14, the “ratio of amounts bound (altered form / unaltered GLS3000 antibody)” value is 0.37.

B15: the “ratio of amounts bound (altered form / unaltered GLS3000 antibody)” value was 0.99.

For B16, the “ratio of amounts bound (altered form / unaltered GLS3000 antibody)” value came out at 0.88.

Take B17: the “ratio of amounts bound (altered form / unaltered GLS3000 antibody)” value is 0.29.

Regarding B18, the “ratio of amounts bound (altered form / unaltered GLS3000 antibody)” value came out at 0.61.

Consider B19, for which the “ratio of amounts bound (altered form / unaltered GLS3000 antibody)” value stood at 1.04.

Regarding B20, the “ratio of amounts bound (altered form / unaltered GLS3000 antibody)” value was 0.98.

For the molecule B21, the “ratio of amounts bound (altered form / unaltered GLS3000 antibody)” value came out at 0.34.

Take B22: the “ratio of amounts bound (altered form / unaltered GLS3000 antibody)” value was found to be 1.86.

Consider B23, for which the “ratio of amounts bound (altered form / unaltered GLS3000 antibody)” value amounted to 0.87.

As for B24, the “ratio of amounts bound (altered form / unaltered GLS3000 antibody)” value came out at 0.44.

Regarding B25, the “ratio of amounts bound (altered form / unaltered GLS3000 antibody)” value came to 0.45.

In the case of B26, the “ratio of amounts bound (altered form / unaltered GLS3000 antibody)” value amounted to 0.8.

Take B27: the “ratio of amounts bound (altered form / unaltered GLS3000 antibody)” value stood at 0.32.

In the case of B28, the “ratio of amounts bound (altered form / unaltered GLS3000 antibody)” value was determined as 0.5.

Consider B29, for which the “ratio of amounts bound (altered form / unaltered GLS3000 antibody)” value was 0.34.

Turning to B30, the “ratio of amounts bound (altered form / unaltered GLS3000 antibody)” value turned out to be 1.65.

B31: the “ratio of amounts bound (altered form / unaltered GLS3000 antibody)” value came to 0.41.
